Measurements reported in publication doi:10.1101/2022.03.11.483938v2.

Tests used:
[1] = substrate: Nc1ncnc2c1ncn2[C@@H]1O[C@H](COP(=O)(O)O)[C@@H](O)[C@H]1O; assay: purified protein; details: hydrolysis rate gradually decreased under the selected conditions
[2] = substrate: Nc1ncnc2c1ncn2[C@H]1C[C@H](O)[C@@H](COP(=O)(O)O)O1; assay: purified protein; details: constant hydrolysis rate

B1: SiE5NT (ecto-5'-nucleotidase) (Serendipita indica DSM 11827) (protein)
chain: KVDSLVSERALQKRFVDANGNYNVTIVHTNDVHAHLDQWRAGRGTDCTPGSECISGYARIKQKVSELRQSIQDPIFLNAGDEFQGTLFFTYYGGEKISYAINEVGYDVFTLGNHEFDRGQGELAAFLKNLTFPVVCANFKTNDTAMNALNIQPYTIIEKHQLGIIGVITPDTKGTSSGAGPGTEFSDPVQAVQKAVDELQAKNITRIIALTHIGYDKDIELAQKTKGVDLIVGGHSHTLLGNFTNAMGSYPTTAKNLDGEEVFIVTSYRWGEILGKMNIAFDASGKIVSYEGEPLRLTNTTQQDPKLQAEVNEWRQPFDAMAQVVVGTSSVVLDQSICQFSECTLGNVITDAMYEYRKNAGGNVDFALINSGGIRASISEGTVTQGDILTSFPFMNGVVDLTWTGKQLLDIFEGVVSKYSTLSHHATTSFIQVSKQVKFSWNPNNVNQTRLITLEIGGQQVDVNKNYTMVTLDFLASNGDYLWGTRTDFAALDTLDVVLASYFKAHSPVGASIEGRITNSTSTTQQLPGKGSSGGSGGASALIVSGLSAGMMLLAGMMLV
Q: How did the Km [1] turn out when B1 was run?
A: 15.9 µM

Q: What about the kcat [1] of the same protein?
A: 1.1 s⁻¹

Q: What about the Km [2] of the same protein?
A: 361.6 µM

Q: What about the kcat [2] of the same protein?
A: 11.9 s⁻¹
